The target in assay [1] is T1, purified arginase 1 (ARG1; aa 1-322) (UniProt P05089 1-322).
T1 construct: Arginase 1 (ARG1), P05089, aa 1-322; Named MBP-ARG1 only for the SPR; also called MBP-ARG1; purified ARG1
T1 sequence (looked up): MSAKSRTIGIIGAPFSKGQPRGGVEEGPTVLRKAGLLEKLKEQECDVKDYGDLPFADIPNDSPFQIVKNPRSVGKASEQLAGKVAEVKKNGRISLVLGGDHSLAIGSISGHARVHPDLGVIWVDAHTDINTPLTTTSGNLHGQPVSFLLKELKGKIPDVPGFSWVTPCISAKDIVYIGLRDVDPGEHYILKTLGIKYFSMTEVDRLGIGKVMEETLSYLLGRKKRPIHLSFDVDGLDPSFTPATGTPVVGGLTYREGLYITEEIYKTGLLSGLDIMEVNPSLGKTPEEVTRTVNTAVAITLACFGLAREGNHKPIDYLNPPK
Description: pull-down; GST-fusion proteins immobilized on GSH agarose beads, mixed with purified ARG1, 1 h at 4 °C. Particulars: both partners purified.

Assay [2] has as its target T1, purified arginase 1 (ARG1; aa 1-322). Description: SPR; Biacore X100, CM5 chip, GST-hsNex (10 µM) captured by immobilized anti-GST antibody, MBP-ARG1 0.5-20 µM injected, 25 °C, 10 mM HEPES pH 7.4, 150 mM NaCl, 0.05% P20, Langmuir 1:1 model. The settings on record: both partners purified.

Binding result and Kd data for 4 molecules are collected here from publication PMC8834437, “Physical Interaction between Embryonic Stem Cell-Expressed Ras (ERas) and Arginase-1 in Quiescent Hepatic Stellate Cells” (Cells, 2022).

B1: GST-hsFL (human ERas full length, aa 1-233) (natural protein, UniProt Q7Z444 1-233, looked up)
chain: MELPTKPGTFDLGLATWSPSFQGETHRAQARRRDVGRQLPEYKAVVVGASGVGKSALTIQLNHQCFVEDHDPTIQDSYWKELTLDSGDCILNVLDTAGQAIHRALRDQCLAVCDGVLGVFALDDPSSLIQLQQIWATWGPHPAQPLVLVGNKCDLVTTAGDAHAAAAALAHSWGAHFVETSAKTRQGVEEAFSLLVHEIQRVQEAMAKEPMARSCREKTRHQKATCHCGCSVA
notes: Embryonic stem cell-expressed Ras (ERas), human, Q7Z444, FL aa 1-233; also called ERas hsFL; GST-FL of human ERas
For the molecule B1, the binding result in assay [1] is listed as “binds”.

B2: GST-hsNex (human ERas N-terminal extension, aa 1-38) (domain or fragment, UniProt Q7Z444 1-38, looked up)
chain: MELPTKPGTFDLGLATWSPSFQGETHRAQARRRDVGRQ
notes: Embryonic stem cell-expressed Ras (ERas), human, Q7Z444, N-terminal extension (Nex) aa 1-38; Cloned into pMal-c5X-His or pGEX-4T1-N-TEV; used as GST fusion; also called ERas hsNex; GST-Nex of human ERas
As usually defined, the Kd is the concentration at which binding is half-saturated. A low value points to higher affinity. B2 registered a Kd in assay [2] of 2.1 µM.

B3: GST-rnNex (rat ERas N-terminal extension, aa 1-38) (domain or fragment, UniProt D3ZTE4 1-38, looked up)
chain: MALPTKSSILDLSPGTQCSRSPEESHEAWAQCKDAGRQ
notes: Embryonic stem cell-expressed Ras (ERas), rat, D3ZTE4, N-terminal extension (Nex) aa 1-38; also called ERas rnNex; GST-Nex of rat ERas
As for B3, the binding result in assay [1] is reported as “binds”.

B4: GST-rnFL (rat ERas full length, aa 1-227) (natural protein, UniProt D3ZTE4 1-227, looked up)
chain: MALPTKSSILDLSPGTQCSRSPEESHEAWAQCKDAGRQLPEYKAVVVGASGVGKSALTIQMTHHCFVKDHDPTIQDSYWKEVALDNGGYILNVLDTAGQDSHRALRDQCLAAGDGVLGVFALDDPSSLDQLQQICSTWNPHHKQPLVLVGNKSDLVSSAGDAHTAAAVLAHKLGAPLVKTSAKTRQGVEEAFALLVHEIQRAQEAVAESSKKTRHHKAVCSCGCSVA
notes: Embryonic stem cell-expressed Ras (ERas), rat, D3ZTE4, FL aa 1-227; also called GST-FL of rat ERas
As to B4, the binding result in assay [1] is recorded as “binds”.
